Results as given in patent US10729634B2, “Sex hormone-binding globulin for use as a medicament” (FUNDACIÓ HOSPITAL UNIVERSITARI VALL D'HEBRON—INSTITUT DE …, priority 2013, dated 2020).

Columns and labels:
[1] = system: human mature adipocytes from obese subjects; test: Lipolysis assay (glycerol release) in human mature adipocytes; assay type: cell-based; conditions: SHBG 10 nM and 30 nM, 16h incubation, vs control buffer
Protocol: A similar in vitro experiment as in Example 1 was performed but using human mature adipocytes from obese subjects instead of the HepG2 cells.
The cells were maintained in DMEM supplemented with 10% foetal bovine serum (FBS) and antibiotics, cultured to confluence, washed and incubated with Lipolysis Assay Buffer containing vehicle (control—C), Isoproterenol (positive control—ISO, 3 μM) or SHBG at different final cell culture concentrations (10 nM and 30 nM). SHBG was from native human protein purified from healthy human serums (it included the amino acid sequence SEQ ID NO: 1). After 16h incubation, media was collected and glycerol concentration was assessed using a Glycerol Detection Kit (Zenbio).

[2] = system: shbg-db/db transgenic mice; test: Obese diabetic db/db mice expressing human SHBG (shbg-db/db) compared with db/db; assay type: in vivo
Description: To shed light to this issue, the inventors developed a unique mouse model that expresses the human SHBG gene and develops obesity, by crossing the human SHBG transgenic mice with the db/db mice.
The human SHBG transgenic mice is the one disclosed by Jänne et al, “Human Sex-Hormone-Binding Globulin Gen Expression in Transgenic Mice”, Molecular Endocrinology—1998, Vol. No. 12 (1), pp: 123-136.
Briefly, these mice were obtained by microinjecting into the pronuclei of a one-cell mouse embryos, a 4.3 kb portion of a human shbg that comprises the 8 exons of the SHBG plus 0.9 kb 5′ of the translation initiation codon in exon 1 and 0.5 kb 3′ from the polyadenylation sequence in exon 8. The one-cell embryos were obtained superovulating CBA×C57BL6 hybrid females with pregnant mare serum and hCG (Sigma Chemical Co. Mississauga, Canada) and mating them with CBA×C57BL6 males. Female CD-1 mice were used to produce pseudopregnant recipients by mating with vasectomized CD-1 males. Injected embryos were implanted into the pseudopregnant recipient mice using a standard protocol. This human transgenic mice over expresses the human shbg gene in vivo. According to Northern blot analysis, the human shbg transcripts are most abundant in liver and kidney. At the cellular level, the human shbg transgenes are expressed in clusters of hepatocytes located mainly within the periportal region of hepatic lobules and in the epithelial cells lining the proximal convoluted tubules of the kidney.
The db/db mice corresponds to the JAX™ Mice Strain: Diabetic Mice db/db (from Charles River; www.criver.com/en-US/Pages/home.aspx). These mice are characterized by having a point mutation in the leptin receptor. In homozygosis the lack of leptin signaling in the hypothalamus will lead to persistent hyperphagia, obesity, type 2 diabetes, dyslipidaemia and fatty liver. In this mice, diabetes (db), which occurred in an inbred strain of mouse, is inherited as a unit autosomal recessive and is characterized by a metabolic disturbance resembling diabetes mellitus in man. Abnormal deposition of fat at 3 to 4 weeks of age is followed shortly by hyperglycemia, polyuria, and glycosuria.
For performing the assays, mice were maintained under standard conditions with food (Global Diet 2018, Harlan Interfauna Iberica, Barcelona, Spain) and water provided ad libitum and a 12 h light/dark cycle. Experimental procedures were approved by the Institutional Animal Use Subcommittees of Hospital Vall d'Hebron Research Institute and the Universitat Autònoma Barcelona.
The mice for experiments in next illustrated assays were of the following four genotypes: • db/+, which means lean mice heterozygous at point mutation in the leptin receptor. • db/db, which means that the mice were homozygous for the point mutation in the leptin receptor and behave a phenotype of persistent hyperphagia, obesity, type 2 diabetes, dyslipidaemia and fatty liver, • shbg-db/+ lean mice heterozygous at point mutation in the leptin receptor and expressing the shbggene • shbg-db/db, which means that the they over-expressed shbg gene in the manner disclosed above and at the same time they had the phenotype of the homozygous db/db mice in relation to hyperphagia, obesity, type 2 diabetes, dyslipidaemia and fatty liver.
Histology and Immunohistochemistry: For morphological studies, 3 animals of each genotype (db/+, db/db, shbg4-db/+ and shbg4-db/db) were used. Livers and adipose tissue were fixed in 4% paraformaldehyde for 24 h and embedded in paraffin. Serial 5-μm thick sections were used for histological examination and stained with hematoxylin-eosin (H&E).
For immunohistochemistry studies, the paraffin sections were de-waxed and incubated at high power in a microwave oven for 10 min in citrate buffer, pH 6.6. The sections were then cooled at room temperature for 20 min and treated with a 0.03% hydrogen peroxide solution for 7 min, prior to incubation (overnight at 4° C.) with rabbit antibodies against F4/80. […]

[3] = system: human SHBG transgenic mice (shbg); test: High fructose diet in human SHBG transgenic mice vs wild-type; assay type: in vivo; conditions: high fructose diet (76% fructose) for 8 weeks, shbg vs WT mice
Description: For this experiment there were used C57BL/6 mice (WT, controls) and human SHBG transgenic mice (shbg) but not obese.
SHBG transgenic mice were obtained as disclosed above and according to Jänne et al, “Human Sex-Hormone-Binding Globulin Gen Expression in Transgenic Mice”, Molecular Endocrinology—1998, Vol. No. 12 (1), pp: 123-136 (supra).
Wild-type (WT) mice and shbg mice were fed with a high fructose diet. (76% fructose) for 8 weeks. Afterwards, they were sacrificed and liver biopsies were analyzed to see total triglyceride (TG) accumulation in both animal types.
Total triglyceride detection was measured using a triglyceride assay kit (Cat. #K622-100 BioVision) following the manufacturer's instructions.
As in Example 3.4 and following the same protocol, lipogenesis was studied by determining the mRNA and protein levels of acetyl-CoA carboxylase (ACC) and fatty acid synthase (FAS). Data from this analysis are illustrated in FIG. 18, panels (C) and (D).

[4] = adipose tissue, shbg-db/db vs db/db mice
[5] = shbg-db/db vs db/db mice, 4 to 12 weeks of age
[6] = shbg-db/db vs db/db mice, relative to 18S mRNA
[7] = shbg-db/db vs db/db mice, sacrificed at 6 weeks
[8] = shbg-db/db vs db/db mice, western blot

B1: SHBG: native human protein purified from healthy human serums (included SEQ ID NO: 1); in mice and HepG2 expressed from human shbg transgene/vector (protein, listed as Homo sapiens)
chain: MESRGPLATSRLLLLLLLLLLRHTRQGWALRPVLPTQSAHDPPAVHLSNGPGQEPIAVMTFDLTKITKTSSSFEVRTWDPEGVIFYGDTNPKDDWFMLGLRDGRPEIQLHNHWAQLTVGAGPRLDDGRWHQVEVKMEGDSVLLEVDGEEVLRLRQVSGPLTSKRHPIMRIALGGLLFPASNLRLPLVPALDGCLRRDSWLDKQAEISASAPTSLRSCDVESNPGIFLPPGTQAEFNLRDIPQPHAEPWAFSLDLGLKQAAGSGHLLALGTPENPSWLSLHLQDQKVVLSSGSGPGLDLPLVLGLPLQLKLSMSRVVLSQGSKMKALALPPLGLAPLLNLWAKPQGRLFLGALPGEDSSTSFCLNGLWAQGQRLDVDQALNRSHEIWTHSCPQSPGNGTDASH
final glycerol concentration (lipolysis) [1]: greater than the observed in the non-treated mature adipocytes
Adiponectin mRNA levels [2, 4]: increased significantly
IL6 mRNA levels [2, 4]: reduced in shbg-db/db mice when compared with db/db mice but it was not statistically significant
IL-1β mRNA levels [2, 4]: significantly reduced
TNF-α mRNA levels [2, 4]: significantly reduced
Triglyceride amounts in liver ([2]; genotype shbg-db/+ (lean mice expressing human SHBG), db/+ control 74.99 ± 4.17): 88.88 ± 12.84 Nmol TGs/tissue g
Triglyceride amounts in liver ([2]; genotype shbg-db/db (obese mice expressing human SHBG), db/db control 421.92 ± 58.6): 314.64 ± 41.37 Nmol TGs/tissue g
macrophage infiltration (F4/80 immunohistochemistry) ([2]; liver and adipose tissue, shbg-db/db vs db/db mice): less macrophage infiltration in both liver and adipose tissue
hepatic lipogenesis ([2]; shbg-db/db vs db/db mice): Reducing Hepatic Lipogenesis
inflammation ([2]; shbg-db/db vs db/db mice): Lowers Inflammation
blood glucose levels [2, 5]: not Blood Glucose Levels
weight gain (body weight) [2, 5]: Reduces Weight Gain
hepatic steatosis ([2]; shbg-db/db vs db/db mice, liver histology): Reduces
liver ACC mRNA levels [2, 6]: significantly lower
liver FAS mRNA levels [2, 6]: significantly lower
adipocyte size [2, 7]: Reduces
adipose tissue weight (VAT) [2, 7]: Reduces Adipose Tissue Weight
liver weight [2, 7]: Reduces Liver Weight
liver ACC protein levels [2, 8]: reduced ACC protein levels
liver FAS protein levels [2, 8]: significantly lower FAS protein levels
fatty liver disease [3]: Protects Against Fatty Liver Disease
triglyceride amount in liver [3]: higher in WT mice than in the transgenic ones (shbg)
